In the DeepSol protein solubility set:

Test: soluble on expression in E. coli; label from the status in PepcDB or PDB records

Row | Sequence | soluble on expression in E. coli
1 | QIVDCWETWSRCTKWSQGGTGTLWKSCNDRCKELGRKRGQCEEKPSRCPLSKKAWTCICY | soluble
2 | MDNTRIMAAREAGVKVEANVHNFNDRLSSKERIRFKHDGIEPQTWGEAIQLRIRKQETQKGVPEGWSKRFPNGSIYDVKVLRK | not soluble
3 | MSNNNTSIHDFDFSFICNYFKLLKRQGPGSPEATRKAVSFINELTDDAKIADIGCGTGGQTLFLADYVKGQITGIDLFPDFIEIFNENAVKANCADRVKGITGSMDNLPFQNEELDLIWSEGAIYNIGFERGMNEWSKYLKKGGFIAVSEASWFTSERPAEIEDFWMDAYPEISVIPTCIDKMERAGYTPTAHFILPENCWTEHYFAPQDEVRETFMKEHAGNKTAMDFMKGQQYERSLYSKYKDYYGYVFYIGQKRLEHHHHHH | soluble
4 | MAHHHHHHSLKKPTHSGSGQIRIIGGQWRGRKLPVPDSPGLRPTTDRVRETLFNWLAPVMVDAHCLDCFAGSGALGLEALSRYAAQATLLEMDRAVSQQLQKNLATLKANNARVVNTNTLTFLSQPGTPHHVVFVDPPFRKGLLEETLQLLETQGWLADDALIYVESEVENGLPPVPANWALYREKVAGQVAYRLYQRDAQGENDVD | soluble
5 | MSLTDDRYTVISADCHAGADLLDYRPYLAKRHHDAFDAWAATYVNPYEDLLADTADRNWNSERRLAELAADGIVAEVVFPNTIPPFFPSASLMAPAPTAAEFEQRWAGLRAHNRWLADFCAAAPGRRAGVFQILLNDVEEAVKEISWAAGAGLRGGLLLPGTPPGSGLPELYSKAYDPIWAVCEELDVPVNHHAGSASPPLGDEPAARAVFMVETTWFSHRALWHLVFGGAFRRHPGLRLVLTEQGSGWIPGVLDMLDYYHGRLVAAGPKSATAEAKFGAGLDRAMGKGPSEVWRDNCFVGASFMRPHEVPLRDRIGLDKIMWGSDYPHDEGTYPYSREGLRIAYAGLPRTEIAAMAGGNAARVYGFDLSEGHHHHHH | soluble
6 | MEQRDMKTVFLLDRSAKFVENCNETFDVTIREGPKQKKLQFEKTIWTWCLEGIFEMHRILSDVYPRGTLQLRFALADFMGKMLDTQWTDGFLTREELGELIETVSRPSEANTDITPIGGLTMAIEALAVQSPEQRNYNYDVRYSANKRTAQNSEVIRVTRELRGLPPLPTVQNAGNLIMYTRLNTQEEMEQLQTEIVELVVSRNKIADAPSNKTFCPITSLRLFIVNYYATGDECTVKTHSLQAHPDLPLLKIWVISRKAADMCDAIHSLLVDAFDLGSTTVTKIPMKEDNRGSSNYDVELFHSGKVHAMLKENNLIDTVSKKGDSDKGVTYDTMRLTWTTAPKTKWSLFPYHGAAVPCTTAQAYSRPSACLTQFVRDGRCVMLDSEKTTELGMNMHEKLVSHLLIANRGRIFIQEIDFMQKKADRIAGKLKRPRVLHAPEDPINMNQLRHTYKQLELRFVAKNRMDDNLTEKETEKWTGLKNSDLKKRFQRISKNIPCFAADTFIFNEKVTPKLEPLISLITKTTLSENDVDKCKQCIVTLYQMKNERQYVISPESDIKISSVRNLKDPDEQLRVTFVELAKHIMKYVTFSEKHKEIYKTYMTTLNVDKLLEVDLDDDEAVDKMFVKFSFFGKSDTASKTDEDEDSSDDEDEEILKSPALKKLFGYVDARDERKYEELYGQGFKKKKPEVEEKPIVMAKEIKVDIFSNMCDMLEVKESKIRREFVGRETHGNIAPLYPQLAEKLERPASPAATERGTERVRNTAERGGSGTPPPGGRRNFQ | not soluble
7 | MKQTVLLLFTALFLSGCSVASADDSVPRFTEEGKYIGSADPHTIAVSLNGEETMIQVPKDKRDECESLPDQTHVLVKYTKKDNGTLQLEDIQLRKTS | soluble
8 | EPDSVSIPITCCFNVINRKIPIQRLESYTRITNIQCPKEAVIFKTQRGKEVCADPKERWVRDSMKHLDQIFQNLKP | soluble
9 | MGSDKIHHHHHHMSEQELSQLSGGMDDAAPCPWLKVEVHPAGDRQVVVAYGDIDVDTEAILQRALREALDHSVSGVNLDLGAVGFCDCAGLNVLLRMRRHALAHGKTLAVQATGPATGKLLTITGTLSLFDVTAGPGTRAKGRNPLPPEPHDPSRVDHIDGTGRGRDGTDLETDGTIDGTVVDLRIEVGQLRRAMQTRPVIDLARGVLMASFGLSAEDAWTVLVTVSQHTNTKLHQIAEDLVNTVQGAPLPEPLQRQLAEAVMPFSRVRNAGA | not soluble
10 | MEKEGFARLFHNFDNVIEPKLCSTSGSVPSYLKGTMLRNGPGMFEIGDTKYQHWFDGMGFIQRYHFEDGKMYYSARYLESENYKKNMEAQRIVTGSFGTASFPDPCKSIFSRFFSSFVQSEGIHDNANVAFAPVGDGLYACTETPNMHRVDLDSLDTLEPVDFSKYVALHTCTAHQLFDENGDVYNIGSRFGPDAAHVFTVTKNPKNLQSDSDRSWEHTTKIGEIRCSETFYPTYMHSFGMSENYLIMFESPIRIDIKKFIMKRFITTTFRDCMKWHADKDVKIFILNKKTGEQVPLKLKMAPFFTFHHANTFERDGCLVVDYCRIEQAGNFDALLIENMKTGNFQNDALFLPYLTRVIIPLSIPDGAQPGDDLLKPLGWAKGCSAIFQDDGKIRLKEKRVCDISMEFPRYHWEKINMKPYNYVYGSSVLGAQKSETLPGIVKADLENGDHKVWRRENDKQICGEPIFVPNPEGVREDDGILIVPVMTISDGQRPFVLILEAKNLTEIARYTIPEARIPLGFHAFYQGRT | not soluble
11 | MSLTPLMVNGILGESVTLPLEFPAGEKVNFITWLFNETSLAFIVPHETKSPEIHVTNPKQGKRLNFTQSYSLQLSNLKMEDTGSYRAQISTKTSAKLSSYTLRILRQLRNIQVTNHSQLFQNMTCELHLTCSVEDADDNVSFRWEALGNTLSSQPNLTVSWDPRISSEQDYTCIAENAVSNLSFSVSAQKLCE | soluble
12 | MGLEKTVKEKLSFEGVGIHTGEYSKLIIHPEKEGTGIRFFKNGVYIPARHEFVVHTNHSTDLGFKGQRIKTVEHILSVLHLLEITNVTIEVIGNEIPILDGSGWEFYEAIRKNILNQNREIDYFVVEEPIIVEDEGRLIKAEPSDTLEVTYEGEFKNFLGRQKFTFVEGNEEEIVLARTFCFDWEIEHIKKVGLGKGGSLKNTLVLGKDKVYNPEGLRYENEPVRHKVFDLIGDLYLLGSPVKGKFYSFRGGHSLNVKLVKELAKKQKLTRDLPHLPSVQALLEHHHHHH | soluble
13 | MSLYPAEHKEVMVQLMNQGNRSSLMQAWIDDGDTSLPPEKIQVPFMLTPPVAKIGANSGQQVKIKIMPNKLPTNKESIFYLNVLDIPPNSPEQEGKNALKFAMQNRIKLFYRPAGIAPVNKVTFKKLLVNRSGNGLVIKNDSANWVTISDVKANNVKVNYETIMIAPLESQSVNVKSNNANNWHLTIIDDHGNYISDKEGHHHHHH | not soluble
14 | MSDNNDRMYELEYPSPEVSGQTAGGPTLIVALQGYADAGHAVESSSSHLMDALDHRLIASFNNDELIDYRSRRPVVVIEHNEVTSMDELNLGLHVVRDNDNKPFLMLSGPEPDLRWGDFSNAVVDLVEKFGVENTICLYAAPMTVPHTRPTVVTAHGNSTDRLKDQVSLDTRMTVPGSASLMLEKLLKDKGKNVSGYTVHVPHYVSASPYPAATLKLLQSIADSADLNLPLLALERDAEKVHRQLMEQTEESSEIQRVVGALEQQYDSE | not soluble
15 | SLGNGMNKILPGLYIGNFKDARDAEQLSKNKVTHILSVHDSARPMLEGVKYLCIPAADSPSQNLTRHFKESIKFIHECRLRGESCLVHCLAGVSRSVTLVIAYIMTVTDFGWEDALHTVRAGRSCANPNVGFQRQLQEFEKHEVHQ | not soluble
16 | MVRIIVKNVSKVFKKGKVVALDNVNINIENGERFGILGPSGAGKTTFMRIIAGLDVPSTGELYFDDRLVASNGKLIVPPEDRKIGMVFQTWALYPNLTAFENIAFPLTNMKMSKEEIRKRVEEVAKILDIHHVLNHFPRELSGAQQQRVALARALVKDPSLLLLDEPFSNLDARMRDSARALVKEVQSRLGVTLLVVSHDPADIFAIADRVGVLVKGKLVQVGKPEDLYDNPVSIQVASLIGEINELEGKVTNEGVVIGSLRFPVSVSSDRAIIGIRPEDVKLSKDVIKDDSWILVGKGKVKVIGYQGGLFRITITPLDSEEEIFTYSDHPIHSGEEVLVYVRKDKIKVFEKN | soluble
17 | NLKVKGARDVFEYMKGRIPDETKEHLFVLFLSTKNQILRHETITIGTLTASLIHPREIFKAAIRESAHSIILVHNHPSGDVQPSNADKQVTSILKKAGDLLQIELLDHVIVGNNDWFSFRDHALL | soluble
